Reference: US20160053277A1, “Compositions Having Dicamba Decarboxylase Activity and Methods of Use” (PIONEER HI-BRED INTERNATIONAL, INC., priority 2013, published 2016)

B1: 53 (protein, listed as Granulicella tundricola)
chain: MARTITLEEHFVTDSFLRATGAYDKPAPPWLAQLQPKLLDLGDGRIAAMDEAGIDLQVLSLAALGFDALDAATATPLVHDINDELAAAVRANPTRLAAFASLALKDPQSAARELERAIQKLGFRGVLLDGTTDGLFLDDPRFTPVFEAAVALNVPIYLHPAPPPESVFDTYFTGLPEGVGQMLSIAGWGWHAETALHTLRLITNGVFDRYPTLQLIIGHMGEMLPMALARTSKALSHAARLRQPVAAYFQSNIHLTTSGYFTQPPLRCALDVVGIDRLMFSIDYPFSANTLGRDYLTELEQTLTPEDLAKLIHRNAESLLNLS
B2: 51 (protein, listed as Mycobacterium gilvum)
chain: MARVIAIEEHYAHPGLQPAEALANLRKHPQLARIQDKLEDLGAGRLADMDAAGIDMQVLSHTVPGAEALPAAQAVDVVRQTNDDLAEVIAAHPDRFAGFAALPMRDPQAAATELQRAVGTLGFCGAMINGLIEGRFLDHPDFTPLLSTAADLGVPLYLHPSFPPPQVAQIYFGGLPPVLADLLATAGWGWHAETALHVLRLISTGVFDRLPELRVIVGHMGEMIPFALARIDTVLSPMTELRQPVAQYFQTNVWFTTSGYTTFPPLQCALSTVGIDRLIFSVDYPYTDNASARALLDTAPISPVDREKLAHATVEALLRV
B3: 56 (protein)
chain: MAKIICLEEHYLDSELGRACMPVALEQAPFLGDWGKTVADGHNPDRSRPQIEKNALINAKGADLGSRRLRDMDEAGITLQILSVGGFPQLAPEDEAVTLNTAANDRLAEAVRNHPDRFAAFATLPWAQPKDAENELVRAVEKLGFKGALLNGRPSSCFLDHPDYDSLLSRFNKLNVPLYLHPGLPLKSVQQAYFTGFSAEVNARLSMFGWGWHHEAGIHLLRLMLSGAFDKYPNMQVISGHWGEMLPFWLQRLDDSLPLAATGLSRTLTRTFQEHVYVTPSGMLTLPHFKFIYELMGAERILFSVDYPYQTLDGVKTFIDSLPVNKAEKEAIAFRNAERLLGITA
modifications: Enterobacter aerogenes
B4: 48 (protein, listed as Amycolatopsis mediterranei)
chain: MASMKLYGLEEHFVTADVIEAWRRRDPGLAEPMMKWAVASDITPALLDVDGGRIAAMDDAGIDTTVLSLTTPGLQNLDAAEAVALQAPTNDLIAAAVRRHPGRFQGFATLATSAPAAAADELRRAVTELGLNGALVNANSRGRALDAPGFWDIYEAAEDLRAPVYLHPGVPVPAVTEAYYRGFGEPVNSMLATGAFGWHYDAGLTILRMIVAGVFDRFPGLQVILGHWGEVVLFYLDRVAAMDKLTALRRPIAEYFRSNIFITPGGISSHKYLRWSLETVGVERIMYASDYPFNTERAGSARRFLDTAPVDEAGRERIAYRNWEELIAGIRR
B5: 47 (protein, listed as Serratia odorifera)
chain: MAKIICLEEHTLDKALVMASMPAALAQAPFLSDWGKTITDGNLPDRSRPQIEKNDLINVKGADIGRGRLDDMDEAGITMQVLSVGGFPHLISAAEGVDLNRAANDRLANAVNAHPDRFAAFATLPWAQPDAAEKELERAVKELGFKGALLNGRPSIHFLDHPDYDGLLARFNALGVPLYLHPGLPVRSVQQAYYSGFSDEVTARLSMFGWGWHHEAGIHLLRLILSGAFDKYPNLQVISGHWGEMLPFWLQRLDDSLPQAATGLRRTITQTFREQVYVTPSGMLTLPHFQFIYALLGAERILFSVDYPYQTLDGVKAFIQSLPVPEEAKEAIAFRNAERLFGLTS
B6: 2 (protein, listed as Serratia sp.)
chain: MAKIICLEEHTLDKALVMASMPAALEQAPFLSDWGKTVTDGNLPDRSRPQIEKNDLINIKGADIGRGRLDDMDVAGITMQVLSVGGFPHLISAAEGVDLNRAANDRLADAVNAHPDRFAAFATLPWAQPDSAEKELERAVKELGFKGALLNGRPSTHFLDHPDYDGLLARFNALGVPLYLHPGLPVRSVQQAYYGGFSDEVTARLSMFGWGWHHEAGIHLLRLILSGAFDKYPNLQVISGHWGEMLPFWLQRLDDSLPQAATGLRRTIAQTFKEQVYVTPSGMLTLPHFQFIYALLGAERIIFSVDYPYQTLDGVKAFIQSLPVPEEAKEAIAFRNAERLLGLTS
B7: 55 (protein, listed as Serratia sp.)
chain: MAKIICLEEHTLDKALVMASMPAALEQAPFLSDWGKTVTDGNLPDRSRPQIEKNDLINIKGADIGRGRLDDMDVAGITMQVLSVGGFPHLISAAEGVDLNRAANDRLADAVNAHPDRFAAFATLPWAQPDSAEKELERAVKELGFKGALLNGRPSTHFLDHPDYDGLLARFNALGVPLYLHPGLPVRSVQQAYYGGFSDEVTARLSMFGWGWHHEAGIHLLRLILSGAFDKYPNLQVISGHWGEMLPFWLQRLDDSLPQAATGLRRTIAQTFKEQVYVTPSGMLTLPHFQFIYALLGAERIIFSVDYPYQTLDGVKAFIQSLPVPEEAKEAIAFRNAERLLGLTS
B8: 49 (protein, listed as Streptomyces sp.)
chain: MAKIIALEEHFSDPAVAKAGAARARALSPGFAASYSPASGLPYSPSPEVLENLAEKRLADMDAGGITMQVLSGLGAQTVPADVAPALVAGSNDKAAAAVRAHPDRFAAFAALPTATPEAAVAELDRSVNELGFVGTLIMGRTEGEFLDAPRFEPILARAAALKVPVFLHPGVPPREITDSNYAAGLPTGIGTRLQTAAWGWHQETAVHFLHLVHSGVLDRYPDLQFILGHWGEMIPFYLDRVDEALPQRATGLDRSFHEYFRENVYLAPSGMWSQAQLRFCLETVPLERIVFAVDYPFIGNEGAVPFLEKAELPQADKRKIAHENAERLLGL
B9: 54 (protein, listed as Streptomyces sp.)
chain: MAKIIALEEHFSDPAVAKAGAARAQALSPGFAASYSPASGLPYSPSPEVLENLAEKRLADMDAGGITMQVLSGLGAQTVPADVAPALVAGSNDKAAAAVRAHPDRFAAFAALPTAAPEAAVAELDRSINELGFVGTLIMGRTEGEFLDAPRFEPILARAAALKVPVFLHPGVPPREITDSNYAAGLPTGIGTRLQTAAWGWHQETAVHFLHLVHSGVLDRYPGLQFILGHWGEMIPFYLDRVDEALPQRATGLDRSFHEYFRENVYLAPSGMWSQAQLRFCLETVPLERIVFAVDYPFIGNEGAVPFLEKAELPEADKRKIAHENAERLLGL
B10: 52 (protein, listed as Streptomyces sp.)
chain: MAKIIALEEHFSDPAVAKAGAARAQALSPGFAASYSPASGLPYSPSPEVLENLAEKRLADMDAGGITMQVLSGLSAQTVPADVAPALVAGSNDKAAAAVRAHPDRFAAFAALPTAAPEAAVAELDRSVNELGFVGTLIMGRTEGEFLDAPRFEPILARAAALKVPVFLHPGVPPREITDSNYAAGLPTGIGTRLQTAAWGWHQETAVHFLHLVHSGVLDRYPDLQFILGHWGETIPFYLDRVDEALPQRATGLDRSFHEYFRENVYLAPSGMWSQAQLRFCLETFPLERIVFAVDYPFIGNEGAVPFLEKAELPEADKRKIAHENAERLLGL
B11: 50 (protein, listed as Streptomyces sp.)
chain: MARIVTLEEHWTDPAVTAAGMPNLLDHVPGYAAAFDPDTGMPYPRHPELLEDLGAARIADMDRHGITTQVLSLVNTFLPADVAPRLTAAANDAMAAAVEAFPGRFAAFATLPTAVPGAAADELRRCVGELGFVGTMIMGRTDGEFLDQPRFDPILRAASDLSVPVYLHPAPPPVAVSEASYAGGLSPAVSAAFRLAAWGWHQETAVHLLHLVLAGVLDRYPGLQFVLGHWGEFIPFYLDRLDESMPRRMTGLDRTFREYFRDNVFITPSGMFSQAQLRYCADTVGTDRIIHSVDFPMLGNEGAVSFLTDSHLSREDQEKIAHGNADALLGLG

Tests used:
[1] = 14C assay with IPTG-induced recombinant E. coli cells: 14CO2 captured from [14C]-carboxyl-labeled dicamba; details: for decarboxylation activity of dicamba: among the 108 sequences tested, recombinant E. coli cells; for Enzymatic Detection level: dicamba decarboxylation activity of the protein of the given SEQ ID NO, High / Low / No; for Dicamba Decarboxylase Activity: induced recombinant E. coli cells, [14C]-carboxyl-labeled dicamba, 14CO2 capture
[2] = Saturation mutagenesis of SEQ ID NO:109: dicamba decarboxylation activity of point mutants (carbon dioxide released); details: decarboxylation activity (carbon dioxide released) of point mutant compared with unmutated backbone protein; backbone SEQ ID NO: 109

Molecule	decarboxylation activity of dicamba [1]	Enzymatic Detection level [1]	Dicamba Decarboxylase Activity [1]	Fold Activity [2]
B1	showed decarboxylation activity of dicamba	High	High	1.6
B2	showed decarboxylation activity of dicamba	High	High	1.7
B3	showed decarboxylation activity of dicamba	High	High	1.3
B4	showed decarboxylation activity of dicamba	High	High	1.5
B5	showed decarboxylation activity of dicamba	High	High	1.2
B6	showed decarboxylation activity of dicamba	High	High	1.1
B7	showed decarboxylation activity of dicamba	High	High	1.5
B8	showed decarboxylation activity of dicamba	High	High	2
B9	showed decarboxylation activity of dicamba	High	High	1.4
B10	showed decarboxylation activity of dicamba	High	High	1.9
B11	showed decarboxylation activity of dicamba	High	High	1.7
